Experimental data reported in the nanobody polyreactivity screen of Harvey et al. (2022).

Assay: yeast display, Sf9 membrane polyspecificity reagent, FACS + sequencing; frameworks hold sequencing errors
How it was run: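 In a synthetic yeast display library (Saccharomyces cerevisiae BJ5465), nanobody expression was induced with galactose for 36–48 hours. FACS gates were set low and high (top ~1%) using anti-HA fluorescence for expression and streptavidin fluorescence for binding of the Sf9 membrane reagent. Each polyreactivity label is drawn from the gate of origin.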

Sequence | polyreactivity (PSR sort gate)
QVQLVESGGGLVQAGGSLRLSCAASGIIFTVYTMGWYRQAPGKERELVAAITTNGGSTYYADSVKGRFTISRDNAKNTVYLQMNSLKPEDTAVYYCAADYPYKPITYDYWGQGTQVTVSS | low polyreactivity
QVQLVESGGGLVQAGGSLRLSCAASGIIFTYAMGWYRQAPGKERELVAAIDWRGGRTYYADTVKGRFTISRDNAKNTVYLEMNSLKPEDTAVYYCAARLPGGTYYWGQGTQVTVSS | high polyreactivity
QVQLVESGGGLVQAGGSLRLSCAASGIIFTYNAMGWYRQPPGKERELVAAISASGSSTYYADSVKGRFTISLDNAKNTVYLQMNSLKPEDTAVYYCAARTRRGLARYDYWGQGTQGTVSS | high polyreactivity
QVQLVESGGGLVQAGGSLRLSCAASGIIFTYYAMGWYIQAPGKERELVAGITWSGTTTYYADSVKGRFTISRDNAKKTVYLQMNSLKPEDPAVYYCNALGYYEHDYWGQGTQVTVSS | low polyreactivity
QVQLVESGGGLVQAGGSLRLSCAASGIIFTYYAMGWYRQAPGKEREFVAAISNGGSNTRYADSVKGRFTISRDNAKNTVYLQMNSLKPEDTAVYYCAARAYQHYNWGQGTQVTVSS | high polyreactivity
QVQLVESGGGLVQAGGSLRLSCAASGIIFTYYAMGWYRQAPGKEREIVAAISWSGGNTYYADSVKGRFTISRDHAKNTVYLQMNSLKPEDTAVYYCARVQYWFYKPMYYWGQGTQVTVSS | high polyreactivity
QVQLVESGGGLVQAGGSLRLSCAASGIIFVPNTMGWYRQAPGKERELVAAIRWSGGTTYYADSVKGRFTISRDNAKNTVYLQMNSLKPEDTAVYYCAARYGSRSSYLAYYYWGQGTQVTVSS | high polyreactivity
QVQLVESGGGLVQAGGSLRLSCAASGIIFVRNAMGWYRQAPGKERELVAAITWRGSTYYADSVKGRFTISRDNAKNTVYLQMNSLKPEDTAVYYCAAQWLYLEYDYWGQGTQVTVSS | high polyreactivity
QVQLVESGGGLVQAGGSLRLSCAASGIIFVRYAMGWYRQAPGKERELVAAITWRGSTYYADSVKGRFTISRDNAKNTVYLQMNSLKPEDTAVYYCAAVKPHYTSFRDYYCGQGTQVTVSS | high polyreactivity
QVQLVESGGGLVQAGGSLRLSCAASGIIFVSYAMGWYRQAPGKEWELVADISSGGRTYYADSVKGRFTISRDNAKNTVYLPMNSLKPEDTAVYYCAKVKRDLQYPGLPEVLNREYWGQGTQVTVSS | high polyreactivity
QVQLVESGGGLVQAGGSLRLSCAASGIIFVYNAMGWYRQAPGKERELVAGISFIGDSTYYADSVKGRFTISRDNAKNTVYLQMNSLKPEDTAVYYCAADYYLPYWFFVGYDYWGQGTQVTVSS | low polyreactivity
QVQLVESGGGLVQAGGSLRLSCAASGIIFVYYDMGWYRQAPGKERELVASISRGGSTNYADSVKGRFTISRDNAKNTVYLQMNSLKPEDTAVYYCAAGSYSILVHLVRYYYWGQGTQVTVSS | high polyreactivity
QVQLVESGGGLVQAGGSLRLSCAASGIIFVYYTLGWYRQAPGKERELVAAITSGGSTYYADSVKGRFTISRDNAKNTVYLQMNSLKPEDTAVYYCAARTYRQPYYILDYYWGQGTQVTVSS | high polyreactivity
QVQLVESGGGLVQAGGSLRLSCAASGIIFVYYVMGWYRQAPGKERELVAAISWDGGSTYYADSVKGRFTISRDNAKNTVYLQMNSLKPEDTAVYYCAARYKGNPDRYGYWGLGTQVTVSS | high polyreactivity
QVQLVESGGGLVQAGGSLRLSCAASGIIFWAYAMGWYRQAPGKERELVAAISWSGGRTYYADSVKGRFTISRDNAKNTVYLQMNSLKPEDTAVYYCAAYRFLLYDYWGQGTQVTVSS | high polyreactivity
QVQLVESGGGLVQAGGSLRLSCAASGIIFWDYAMGWYSQAPGKERELVAAISSSGSTTYYADSVKGRFTISRDNAKNTVYLQMNSLKPEDTAVYYCAAESLYEDDKGDYWGQGTQVTVSS | high polyreactivity
QVQLVESGGGLVQAGGSLRLSCAASGIIFWRYAMGWYRQAPGKERELDAGITSRGGSTYYADSVKGRFTISRDNAKNTVYLQMNSLKPEDTAVYYCNAPRGSRRSYRRTEYYYWGQGTQVTVSS | high polyreactivity
QVQLVESGGGLVQAGGSLRLSCAASGIIFWSSVMGWYRQAPGKERELVAAITFSGGSTYYADSVKGRFTISRDNAKNPVYLQMNSLKPEDTAVYYCAARYKLVRRYDYWGQGTQVTVSS | low polyreactivity
QVQLVESGGGLVQAGGSLRLSCAASGIIFWSYTMGWYSQAPGKERELVAVITSDGSTNYADSVKGRITISRDNAKNSVYLQMKSLKPEDTAVYDCAADPWLGTGRYDYWGQGTQVTVSS | low polyreactivity
QVQLVESGGGLVQAGGSLRLSCAASGIIFYDYAMGWYRQAPGKERELVAAISRSGSSTYYADSVKGRFTISRDNAKNTVYLQMNSLKPEDTAVYYCASRFGDMGYWGQGTQVTVSS | high polyreactivity
QVQLVESGGGLVQAGGSLRLSCAASGIIFYDYAMGWYRQAPGKERELVAAISTDAGSTYYADSVKGRFTISRDNAKNTVYLQMNCLKPEDTAVYYCNADELSYYVSWDYEYDYWGQGTQVTVSS | high polyreactivity

Sequence | polyreactivity (PSR sort gate)
QVQLVESGGGLVQAGGSLRLSCAASGIIFYDYAMGWYRQAPGKERELVAAITSSGGSTYYADSVKGRFTISRDNAKNTVYLQMNSLKPEDTAVYYCAAATRGSGRRYDYWGQGTQVTVSS | high polyreactivity
QVQLVESGGGLVQAGGSLRLSCAASGIIFYGYAMGRYRQAPGKERELVAAITSSGRTYYADSVKGRFTISRDNAKNTVYLQMNSLKPEDTAVYFCNVLLQRVYGTAPSFDYWGQGTQVTVSS | high polyreactivity
QVQLVESGGGLVQAGGSLRLSCAASGIIFYGYAMGWYRQAPGKERELVAAISRSGGSTYYADSVKGRFTISRDNAKNTVYLQMNSLKPEDTAVYYCAAVRIRPLRYYYWGQGTQVTVSS | high polyreactivity
QVQLVESGGGLVQAGGSLRLSCAASGIIFYGYAMGWYRQAPGKERELVAAITYSGGSTYYADSVKGRFTISRDNAKNTVYLQMNSLKPEDTEVYYCAAYDAYSPYQALYDYWGQGTQVTVSS | low polyreactivity
QVQLVESGGGLVQAGGSLRLSCAASGIIFYLNAMGWYRQAPGKERELVAAISSSGGRTNYADSVKGRFTISRDNAKNSVYLQMNSLKPEDTAVYFCAAVITFYRYPPGETYYYWGQGTQVTVSS | high polyreactivity
QVQLVESGGGLVQAGGSLRLSCAASGIIFYLYAMGWYRQAPGKERELVAPITTGGRTNYADSVKGRFTISRDNAKNTVYLQMNSLKPEDTAVYYCAATHRGQGGYYWGQGTQVTVSS | low polyreactivity
QVQLVESGGGLVQAGGSLRLSCAASGIIFYRNTMGWYRQAPGKERELVASISRGGSTNYADSVKGRFTISRDNAKNTVYLQMNSLKPEDTAVYYCAAYTYIPLSYYRGYTMDYWGQGTQVTVSS | low polyreactivity
QVQLVESGGGLVQAGGSLRLSCAASGIIFYSSAMGWYRTAPGKERELVAAISWGGRTYYADSVKGRFTISRDNAKNTVYLQMNSLKPEDTAVYYCLNGRYWRRYDYWGQGTQVTVSS | high polyreactivity
QVQLVESGGGLVQAGGSLRLSCAASGIIFYSYAMGWYRQAPGKERELVATISFSGDNTYYADSVKGRFTISRDNAKNTVYLQMNSLKPEDTAVYYCAAASTYGGYYYSVSFEYWGQGTQVTVSS | low polyreactivity
QVQLVESGGGLVQAGGSLRLSCAASGIIFYYSAMGCYRQAPGKERELVAAISWSGGTTIYADSVKGRFTISLDNAKSTVYLQMNSLKPKDTAVYYCAAAFSPGWWSRHTYDYDYWGQGTQLTVSS | high polyreactivity
QVQLVESGGGLVQAGGSLRLSCAASGIIFYYYAMGGYRQAPGKEREFVAGIRWSSGSTYYADSVKGRFTISRDNAKNTVYLQMNSLKPEDTAVYYCAADSSGEYPGGYWGQGTQVTVSS | low polyreactivity
QVQLVESGGGLVQAGGSLRLSCAASGIIFYYYAMGWYRQAPGKERELVAAISTSGGRTYYADSVKGRFTISRDNAKNTVYLQMNSLKPEDTAVYYCNTKVISRTSERRGNGFTRYDYWGQGTQVTVSS | low polyreactivity
QVQLVESGGGLVQAGGSLRLSCAASGIIFYYYAMGWYRQAPGKERELVAGISYSGGSTYADSVKGRFTISRDNAKNTVYLQMNSLKPEDTAVYYCASDYDYGGHWYDYWGQGTQVTVSS | low polyreactivity
QVQLVESGGGLVQAGGSLRLSCAASGIIFYYYGMGWYSQAPGKERELVAAISTGGSTNYADSVKGRFTISRDNAKNTVYLQMNRLKPEDTAVYYCAVTYWWYYGYDYWGQGTQVTVSS | low polyreactivity
QVQLVESGGGLVQAGGSLRLSCAASGIIIDYNAMGWYRQAPGKERELVAAISSRGGSTYYADSVKGRFTISRDNAKNPVYFQMNSLKPEDTAVYYCAGRPDHQRYDYWGQGSQVTVSS | low polyreactivity
QVQLVESGGGLVQAGGSLRLSCAASGIIIDYYTMGWYRQAPGQERELVAAINKSGGSTYADSVKGRFTISRDNAKNTVYLQMNSLKPEDTAVYYCAAEVDYSYWPEYARKYYYWGQGTQVTVSS | low polyreactivity
QVQLVESGGGLVQAGGSLRLSCAASGIIIGGYAMGWYRQAPGKERELVADITWSGGSTTYADSVKGRFTISRDNAKNTVYLQMNSLKPEDTAVYYCAAEDYYIYREPYDYWGQGTQVTVSS | low polyreactivity
QVQLVESGGGLVQAGGSLRLSCAASGIIIRKYAMGWYRQAPGKERELVAAITTRGSRTYYADSVKGRFTISRDNAKNTVYLQMNSLKPEDTAVYYCAGDRYTVRMDYWGQGTQVTVSS | high polyreactivity
QVQLVESGGGLVQAGGSLRLSCAASGIIIRYYAMGWYRQAPGKERELVADITTGGTTYYADSVKGRFTISRDNAKNTVYLQMNCLKPEDTAVYYCAAYYFPTYSKTYIYPFDYWGQGTQVTVSS | low polyreactivity
QVQLVESGGGLVQAGGSLRLSCAASGIIIRYYAMGWYRQAPGKERELVADITTGGTTYYADSVKGRFTISRDNAKNTVYLQMNSLKPEDTAVYYCAAYYFPTYSKTYIYPFDYWGQGTQVTVSS | low polyreactivity
